# Laboratory results reported in publication PMC7914648 (Pharmaceuticals, 2021).
# Columns and labels:
# [1] = assay type: in vivo, mouse; conditions: An2-PAPTP 5 µmoles/kg bw i.v. in mouse plasma
# Protocol: The brains of these mice were analyzed to evaluate the presence of the construct in the tissue (see Section 4.7). Each brain was homogenized and incubated with an equal volume of phosphate-buffered saline (PBS, pH 12.5) for 24 h; 10 volumes of ethyl acetate were then added. After vigorous mixing, the organic phase was collected, concentrated and analyzed via HPLC. This procedure allows hydrolysis of the carbamate bond, leading to the extraction of PAPTPL, which is considered proportional to the amount of peptide-PAPTP conjugate (or its fragments) present in the brain.
# The protocol set up for PAPTPL recovery turned out to be inefficient for the quantification of TAT-PAPTP. An alternative protocol was thus developed. Tissue obtained from untreated mice was weighed and homogenized with PBS pH 7.4 (1 vol) with a potter. The pre-established amount of analyte was added into tissue homogenates and, after thorough vortexing, 1 vol of PBS pH 12.5 was added and the sample was incubated with intermittent vortexing at 60 °C for 24 h. This step is required to allow the hydrolysis of the carbamate bond connecting the peptide and PAPTPL. 10 vol of ethyl acetate were added and, after vortexing and sonication for 2 min, the sample was centrifuged at 12,000× g, 7 min, Room Temperature. The organic phase was collected and concentrated with Hetovac VR-1. ACN was added to the concentrated sample to allow the resuspension of PAPTPL and analyzed via HPLC. Quantification was as described for PAPTPL.
# Brain and liver obtained from untreated mice were weighed and homogenized with PBS pH 7.4 (1 vol) with a potter. The pre-established amount of analyte was added into tissue homogenates and, after thorough vortexing, 5 vol of acetone were added and the sample was sonicated for 2 min. Subsequently, 5 vol of ACN containing 0.1% trifluoracetic acid (TFA) were added and the sample was sonicated for 5 min. The sample was then centrifuged at 12,000× g for 7 min at 4 °C and the supernatant was collected, concentrated with a Hetovac VR-1, and analyzed via HPLC-UV.
# To quantify the amount of An2-PAPTP stuck in the tissue, the pellet remaining after the procedure described above was incubated with intermittent Vortexing at 60 °C for 3 h with PBS pH 12.5/ACN 1:1 and then centrifuged at 12,000× g for 7 min. HPLC-UV analysis of the supernatant, measuring PAPTPL hydrolyzed from the tissue, thus indirectly reflects the amount of An2-PAPTPL in the pellet (Scheme 3). Quantification was as described for PAPTPL.
# A stock solution of the peptide-PAPTP conjugates was prepared in DMSO. TAT-PAPTP was administered at 8 and 5 μmol/kg bw and An2-PAPTP only at 5 μmol/kg bw. The calculated quantity of drugs was diluted from the stock solution in saline or mouse plasma to a final volume of 200 μL.
# [2] = Preliminary brain levels after intraperitoneal An2-PAPTP; assay type: in vivo, mouse; conditions: An2-PAPTP 5 µmol/kg bw i.p. in DMSO; sacrifice at 20 min or 1, 2, 4 h; four mice
# Protocol: In preliminary tests An2-PAPTP was administered at 5 µmol/kg bw by the intraperitoneal (i.p.) route, using dimethylsulfoxide (DMSO) as the vehicle. […] Many brain-penetrating peptides bind to biomolecules such as proteins and cell structures such as membranes. Furthermore, the absence of a flowing bloodstream at the injection site may cause a poorly soluble molecule to remain confined in the vicinity of the point of delivery. […] Collectively, these preliminary results led to the adoption of the intravenous route. An2-PAPTP (5 µmoles/kg bw, in plasma) was thus administered by tail vein injection to mice.
structure (smiles),measurement,setting,value
CC[C@H](C)[C@H](NC(=O)Oc1ccc(CCCOc2ccc([P+](CCCc3ccc(OCCCCOc4c5ccoc5cc5oc(=O)ccc45)cc3)(c3ccccc3)c3ccccc3)cc2)cc1)C(=O)N[C@H](C(=O)N[C@@H](Cc1ccccc1)C(=O)N[C@@H](Cc1ccccc1)C(=O)N[C@@H](Cc1ccc(O)cc1)C(=O)NCC(=O)NCC(=O)N[C@@H](CO)C(=O)N[C@@H](CCCNC(=N)N)C(=O)NCC(=O)N[C@@H](CCCCN)C(=O)N[C@@H](CCCNC(=N)N)C(=O)N[C@@H](CC(N)=O)C(=O)N[C@@H](CC(N)=O)C(=O)N[C@@H](Cc1ccccc1)C(=O)N[C@@H](CCCCN)C(=O)N[C@H](C(=O)N[C@@H](CCC(=O)O)C(=O)N[C@@H](CCC(=O)O)C(=O)N[C@@H](Cc1ccc(O)cc1)C(=O)O)[C@@H](C)O)[C@@H](C)O [An2-PAPTP],"Brain Psoralenic Species (nmol/g Tissue), 15 min","[1]; 15 min, PAPTPL after carbamate hydrolysis, mean ± SEM, n = 5",0.3 ± 0.1 nmol/g Tissue
same,"Brain Psoralenic Species (nmol/g Tissue), 30 min","[1]; 30 min, PAPTPL after carbamate hydrolysis, mean ± SEM, n = 4",0.4 ± 0.6 nmol/g Tissue
same,presence in brain one hour post-injection,[1]; one hour,only a trace could be detected
same,detection in brain after i.p. administration,[2],no An2-PAPTP or PAPTPL could be detected
